One substance from patent US20090092614A1 can be followed below.

The target of experiment [1] is human IGF-1R(1-903)-Fc (human) (UniProt P08069). In words: blocking ELISA, competitor 320 nM IGF-1. (In general: In an ELISA, binding on a coated surface is turned into a signal by an enzyme label.)
Experiment [2] has the same target. In words: blocking ELISA, competitor 640 nM IGF-2.
For experiment [3] the target is unchanged. The experiment can be described thus: competition ELISA: biotinylated hIGF-1R-Fc on streptavidin plate, antibody titrated in 320 nM human IGF-1 His (blocked ligand), anti-His-HRP detection.

Chain of human IGF-1R(1-903)-Fc (human) (P08069 31-933): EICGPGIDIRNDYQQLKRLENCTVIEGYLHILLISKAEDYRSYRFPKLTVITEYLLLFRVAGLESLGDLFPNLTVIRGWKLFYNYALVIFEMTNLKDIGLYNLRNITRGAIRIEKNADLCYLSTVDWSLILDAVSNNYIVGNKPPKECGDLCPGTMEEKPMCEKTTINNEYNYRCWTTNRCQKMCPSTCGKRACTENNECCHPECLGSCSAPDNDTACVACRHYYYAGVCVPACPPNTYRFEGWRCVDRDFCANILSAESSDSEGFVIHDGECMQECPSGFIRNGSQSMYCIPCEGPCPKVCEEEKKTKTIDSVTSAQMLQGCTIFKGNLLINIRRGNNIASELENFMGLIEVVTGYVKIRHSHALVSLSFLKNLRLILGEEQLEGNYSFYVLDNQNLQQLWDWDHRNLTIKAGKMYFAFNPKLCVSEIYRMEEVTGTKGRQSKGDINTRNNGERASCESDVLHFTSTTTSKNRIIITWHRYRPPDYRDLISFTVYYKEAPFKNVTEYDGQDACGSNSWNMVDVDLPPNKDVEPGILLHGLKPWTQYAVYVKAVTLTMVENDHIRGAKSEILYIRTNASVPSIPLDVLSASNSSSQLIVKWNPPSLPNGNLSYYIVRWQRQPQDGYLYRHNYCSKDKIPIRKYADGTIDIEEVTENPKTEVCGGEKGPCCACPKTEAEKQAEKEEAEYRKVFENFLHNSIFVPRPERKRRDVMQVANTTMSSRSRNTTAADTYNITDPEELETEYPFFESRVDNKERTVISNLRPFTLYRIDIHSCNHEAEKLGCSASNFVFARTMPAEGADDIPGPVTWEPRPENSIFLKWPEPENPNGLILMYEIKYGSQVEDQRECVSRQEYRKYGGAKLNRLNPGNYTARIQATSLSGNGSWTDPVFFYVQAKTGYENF

On to αIR3 (antibody), for which the % IGF-1 inhibition upon antibody saturation in experiment [1] came to 23%. This substance returned a % IGF-2 inhibition upon antibody saturation in experiment [2] of 60%. The substance further showed an IC50 (read off the curve) in experiment [3] of 4 nM.
